Entries after “also recorded” stand apart in the source; their conditions may differ.
Tests used:
[1] = test system: corticospinal tract (CST) axons; test: CST sprouting after intraspinal CNTF injection without pyramidotomy, BDA tracing; format: in vivo, mice
Method: For pyramidotomy, mice were anesthetized with ketamine/xylazine. The procedure is similar to that described previously […]. Briefly, an incision was made at the left side of the trachea. Blunt dissection was performed to expose the skull base and a craniotomy in the occipital bone allowed for access to the medullary pyramids. The left pyramid was cut with a fine scalpel medially up to the basilar artery. The wound was dosed in layers with 6.0 sutures. The mice were placed on soft bedding on a warming blanket held at 37° C. until fully awake. We traced the intact CST 4 weeks later with BDA (see below). For CNTF injection into adult SOCS3 f/f mice with neonatal AAV-Cre cortical injection, a laminectomy was performed at C1 and 1 ul of CNTF (10 ug/ml, PeproTech, 450-13) was injected with a nanoliter injector into the ventral side of the dorsal column (0.5 mm deep). BDA tracing was performed 6 weeks later.
To label CST axons by anterograde tracing, a total of 2.0 μl of BDA (10%, Invitrogen, D-1956) was injected into the right sensorimotor cortex at five sites (anterior-posterior coordinates from bregma in mm; 1.0, 0.5, 0, −0.5, −1.0, all at 1.0 mm lateral and at a depth of 0.5 mm). Mice were kept for an additional 2 weeks before being sacrificed.
Mice were given a lethal dose of anesthesia and transcardially perfused with 4% paraformaldehyde. Brains and spinal cords were isolated and post-fixed in the same fixative overnight at 4° C. Tissues were cryoprotected via increasing concentrations of sucrose. After embedding into OCT compound, the samples were snap frozen in dry ice. […]
For the groups of pyramidotomy, digital images of C7 or other levels of the spinal cord transverse sections were collected using a Nikon fluorescence microscope. […]
To quantify the number of sprouting axons, the methods used in previous studies (Liu et al., 2010) were followed. […] Only fibers crossing the three lines were counted in each section. The results were presented after normalization with the number of counted CST fibers at the medulla level. At least three sections were counted for each mouse.

[2] = test system: retinal ganglion cells (RGCs) / optic nerve axons; settings: SOCS3f/f mice, CNTF applied intravitreously; cited from earlier work

B1: ciliary neurotrophic factor (protein, UniProt P26441 1-200, looked up)
Ciliary neurotrophic factor: MAFTEHSPLTPHRRDLCSRSIWLARKIRSDLTALTESYVKHQGLNKNINLDSADGMPVASTDQWSELTEAERLQENLQAYRTFHVLLARLLEDQQVHFTPTEGDFHQAIHTLLLQVAAFAYQIEELMILLEYKIPRNEADGMPINVGDGGLFEKKLWGLKVLQELSQWTVRSIHDLRFISSHQTGIPARGSHYIANNKKM
[1]; SOCS3f/f mice, cortical AAV-Cre at P1, CNTF injected at C1, no injury
  CST sprouting at C7 spinal cord level: but not C7; also recorded: No CST sprouts seen
[1]; SOCS3f/f mice, cortical AAV-Cre at P1, CNTF injected into dorsal spinal cord at C1 in adulthood, no injury, vs saline
  CST sprouting at C1 spinal cord level: triggered a significant CST sprouting response; also recorded: promotes sprouting in SOCS3-deleted neurons in the absence of an injury; also recorded: numerous crossing CST axons
[1]; single CNTF injection at C1, SOCS3-deleted mice
  extent of CST sprouting compared with left pyramidotomy: less than after left pyramidotomy; also recorded: less pronounced than what is seen after injury
[2]
  effect of intravitreal CNTF on axon regeneration induced by SOCS3 deletion: enhances axon regeneration induced by SOCS3 deletion

Reference: patent US10918697B2, “Co-activation of mTOR and STAT3 pathways to promote neuronal survival and regeneration” (Children's Medical Center Corporation, priority 2011, dated 2021)
